The values below come from the DeepSol protein solubility set.

A short description of the data set: soluble on expression in E. coli; label from the status in PepcDB or PDB records.
For the sequence “MGSDKIHHHHHHVTTIRFLNGLNTIGGNIVEFATKTSRVIMDFGVAADLSNETVSSAIDNGKLPHVPELFFDQPDVYTHEAIFISHLHIDHMGALQYLKKPIPIYLSEPSYKLYQLLIKLGIEKPVANLHPLAYEQPLTIGDLTVTGFHSDHDEPGVMALLVDDGSRRYAHSGDVRLNGPHAKRVHAWAKRFNQEKLSLFMLEGTSFSFDTAAPVEDQDHPSIPLTEMSLQKQFQTVLAESPTLVVINPYIRNYERLASFQASAHTAGRQLVWEPDDAAVLTTMTDQKPDAILGQTISLTDIARDPQHYVLQNSFDHLERLTDMPITTYIHSNGEPLGDYDPRFAQLKDWLEAHHIPLQFMNASGHASREDLITLAKEVNPRTIVPWHSFHPEREAEALDTQTNAAVVLPERDLYYDFDELSEDE”, the “soluble on expression in E. coli” value is on record as “not soluble”. With “MAHHHHHHMIKCLKNNINIWKRVRRNVSYGYYNININEKIHKYFDNIDKKRNIKYISDCKSCKECVDEIKNGNYNLLKDFNMKMIGLDIEGYKIGKYGIVSIIQICYEDIYIFDIYKCDNVYLFINYIKDILECDDIIKVTHDCREDCSILYNQYNIHLKNILDTQVAYNLLLKNNNNYTNTYQISYDDLLKKYLFINNNHKIYFHKMITLDNYIYLKRPIMKELISYAIQDVIYLKPLILCILDKFIIKQKKKEEQEKNKYVNDKQNNKIKQEKFDKTSNTLQSKGNISSFNNQDLYHTKEIIQDIILHSKKYVNYQFLNSHIKDEKELQKGMILEGMVVSCNNTKMYLKLNMRKRGVILNYVQNKYEIGDIVKAVIVNFTRNDYINLGLYDEKILTLDAQKYIPREEVLQNIQKFLLNEEKI”, the “soluble on expression in E. coli” value is given as “not soluble”. With “MGSDKIHHHHHHMNNEFYNQGLEKAKQRDYAGAIEEFSRALKLTPYFAEAYLQRGLAYYDSGAILLAVSDYTEVIRINPESVEAYYCRSLARLALKNLPGALEDVEQAIRLNINYAAAHHLRGTVRRKQGYIQDAIASFKQAAELYLQQKDQENCRLCLEKIKQLQPPKQSTIQPTKSPIAPITSVNEYFTQLLDKAEQGDTREAIADLNWILQADPQDAQAYCCRGVVRCKMGNYREAIADFNQALQLNFQDAVVYRNRGKARSLLGDHRGAIADFNQAIQIQPEDTLGYVARGNTYRAMGNYLGAIQDYGKALQINPHDAQAYYNRGIAYTFLEEMQNAVEDYQRAASIFCEQQDWENYQLTQDSLKQIQTSIPEYKQQKSNVLRQKLLRLVGGYWEIAQRLIQQQKDYQPGMSEEWYMQKVIDDLERDRGR”, the “soluble on expression in E. coli” value is given as “not soluble”. Consider “MGSDKIHHHHHHSDDNKTTGATYDPNQPVTVESFMPVEGKLREKVIVKGSNFGTDKSKVKVYFVDEAAERLSTVIGIDNNTLYCLAPRQLPGGNRIKVIVDGKEVTTDGTFKYEQAQNVSTISGSASKDGNDDGDLASAKFKYMWGIAAVGNNTVLAYQRDDPRVRLISVDDNKVTTVHPGFKGGKPAVTKDKQRVYSIGWEGTHTVYVYMKASGWAPTRIGQLGSTFSGKIGAVALDETEEWLYFVDSNKNFGRFNVKTQEVTLIKQLELSGSLGTNPGPYLIYYFVDSNFYMSDQNLSSVYKITPDGECEWFCGSATQKTVQDGLREEALFAQPNGMTVDEDGNFYIVDGFKGYCLRKLDILDGYVSTVAGQVDVASQIDGTPLEATFNYPYDICYDGEGGYWIAEAWGKAIRKYAVE”, for which the “soluble on expression in E. coli” value is “not soluble”. Next, “MGSDKIHHHHHHKQEPISKSGVPVINLSEDVSTVPSLLLSEAAEKLEIVPLEMTDESVLSDITEMQVTDHNIWIDHGREFYIYRFSRTGKFLNKIGSIGQGPGEYTTYSTFLVDEDKKEVYIIANTNGVLAYDFEGNFKRKIIDIQMILQLFSSPYDQYILNNQKFFATQNFGLYRPIDKDSLWSFVSLGDDFQKKKYFKNPAHVGREEQIIANRANMDRMVNYWREYLTSMDTYNAQLTLKYPDTDTIYCYDDATNQLSPQYAIFTDEEKGDYEATHLWFKDRKAFDYFSIFSYYPTKDFIYLVGSKGEEVYTYCYNKKDGSVRLQKRQSTITERDVPWFSFPLRQMKRDFVLDNDLGGGDFTVDSRSSGKYWIDILEPGGDENWIDIDQIKSSTVIDESKKKELIRVLESATEDSNPILMIATLK”: “not soluble”; “MTAPSLLIAGCGDIGSRLATRLLPHGWTVHGLRRTVSELPAGVHGVAGDLFDTRKPALWPAAALDYVVYCATPSKRDEAGYRMAYVEGLRNVLSWLEQTGQRPKRLIFVSSSGVYGQQNGEWVDEDSITEPANYTGTVMLEAEQLALNSGLPATAVRLTGIYGPGRSDLSNRVRQGHSVRIDPPVYANRIHADDAASLLEHLLQADQRGVALESCYLGVDDDPAALADVVAWIREYLGVTEWSEEVSVQRVGSKRCSNARARALGWTPMYPDYRAGYAALLG”: “not soluble”.
